This data set is described as follows: label from the status in PepcDB records.
As for “MEKNVTPMIRQYLDIKKKYKDAVLFFRVGSFYEMFFDDAIEVSKLLNLTLTKRENVPMCGVPYHTSKEYIRKLILFDKKVAICEQASNSTSGGPLEREVVEVITPGVIIDEDFLNDDINNYLVAISDYKDYYSFSYIDLSTSSLGIMFYENGFFEKLKRDLEKYSPKEIIVSENFYYEYSEKLNLSRFLINRVPTWHLDKDIAIKTIKEHFNILGLSSLGFDEEKPYYISIFLIINHIKNNLKNLLSNIDKIDINNDSSYMFLDDVTQVNLELVKNNNDFSSQYSLYSVLNDCKTAMGKRLLREFILNPILNISEINTRLDHVEFFCKNISLTVTLRETFINIWDIERIISRIQMKRYIKKDFLFIEKALSVFFTVKKLFDKHNFDYWNFDKFEEDSISKVYFLINSAISSAPDELIKRGYDLKLDNLKDLKINANKYIDQYLESERLLSKINNLKIRKTNNRGLFFEVTKSNYAQVPPHFMESQALNSSKRYKTEKLISLEVDINNAEDNVVAFEQEIFDEIASNVVMHNKVLKKVAEFFAYIDLVVNFGYLAKKNEYKRPVLTSGKEILLEKSRHPVVEHYTKNTEIFTENFVRINKEKYFCLITGPNMAGKSTYLRQVALITLMAHIGSFVPASKALIGITDKIFCRIGASDNIAKGESTFLVEMNETANILRNATEKSLIIMDEVGRGTSTNDGLAIAYSIIEYILEYIKARSLFATHFHELSSINHQAFINLSMKIEKQGNDLVFLREVEEKPSLNSYGIYVARIAGLPLRVIDRANVILESLVGREGNSCLEFLPHVSSDGNDKEILKNDTDIHIKLNEYLELKNFISNIDINNITPFQSIELLNQIVLKVISQSS”, the protein production entry is recorded as “failed”.

Turning to “MEKRLDYITDLMALGPTANARTIQRRQTAHRLAIAEAWQVKPGEKILEIGCGQGDLSAVLADQVGSSGHVTGIDIASPDYGAPLTLGQAWNHLLAGPLGDRLTVHFNTNLSDDLGPIADQHFDRVVLAHSLWYFASANALALLFKNMAAVCDHVDVAEWSMQPTALDQIGHLQAAMIQGLLYAIAPSDVANIRTLITPDTLAQIAHDNTWTYTAGTIVEDPTLDDAHWEIATTNALLTELKLSTDLRDRVKPLLEAMSHNGTASLATFTGRITF”, the protein production result is “not failed”.

For the sequence “MEKRQDNNEIERRILKYEQYVKEHPKKAYGYYCLGRLHMMDGKYKLAEEYFKKSLAVDGNYTFSIIGLIEACVFRRKFLKAVYLFSKNRQKIIDKYIYRVKLVRGVSSFYSKSGFFRTEAKDFLSQLSLKNSIRSIKKLVDSEANNIVLKLILCMYYLNFGEKSFYIIQLFKTCIYWDGLEDSFRWALIRRLSEFGEKLYYDANIARKFATVPDASCTDEYVDLIFSSALDREKGGRMADIYRTAEKYNKNISPRLIWRYVKWSNENSFYDPSVYDCCKKLVDMGWMDSVVADTMLKFRERNAVKLGDETERALRLFGYMD”, the protein production result is recorded as “failed”.

For “MEKSLETVPGLDLSGEDIEMYYQYVRFVDRFLRFNRNYQIEYFKLSYPGDGSSEREVDLLKRWIDTVIQLKVKDLDFFDYSWEWGFDNFQLPSTIYICESLVSLKLSTVTLPSVKSVSLPFLRVLKLGAVKFADHLDLETLISGCTALETLAIRFFDRVQVLQVSSQSLLSFTHVAPKLVFTHAVRKPLAEKDLSIVIDAPRLEYLKLSDHQTSSFIIKNPGSLVAVDIDINLSSGFDSRNMIRDFLVGISSVKNMTISSIILKFYDYRFKMLPTFLEICPNLKSLILKSTEELGIKESSMFSGPQDFLPSLEYVEMKMPLKKGLLLEIRMLVGYFLEKATILKKLTLCLDDYRKRKESLIPRILAIPRISTSCEVVVL”, the protein production entry is recorded as “failed”.

For the sequence “MEKSLLVIVRHKPGRTRLLIRALQSINDQTFKKINIIIFCMEEELKCHNVDDFYLKELSNIYSVIYDENCIFNAIKMSESNYLCFMDDDDSWAPEYVSRLLSVLANIQSTYSSVNAIACHTNKVAEIAENNRIIINSTQPWNHYLNAGPVSFDVIYYRNSIPLSSCLFDRNSVIDVIESHKLSSPAFFWPFFIHYLAENDVWILPEALAFYHFRENDDFEFGNYTVINNELFDIECKIAENKMMRSIDDSSLLNVLLSNIANNSLFHKISYIENKIK”, the protein production entry is recorded as “failed”. Regarding “MEKSNLYKVDEFGVKNYNYGILAILSFVLFAFINISLGYVTFVAETAVEGSPVKNYADAFWLMLMSSTTIGFGDVYPITLEGRIAVFTMFILGVGILGGVGAVFANKIFGFADTNIKNRELRQQNEEILLQNDKIYQKLTALEDKLEAFNRETK”, the protein production entry is listed as “failed”. As for “MEKSNVFLLSILLMASLFSISHAFQLWGYAIDRVSIRGVVYCSLDGDPSAPPVSNATVYIECPGGSNSTLAQAVTNQVGVFTLPWLMFIANYAIGASRQ”, the entry is “failed”; as for “MEKVHLYWNLRYNCWFLVSVEHLWYSQGKVPGVHGFVILPVFLTLLEQPFSTTKKDITQLRSPSSESLSSSNAVNYRAIRGSHSYFGIYGI”, “failed”; as for “MEKVLTDLDRVNIAKQEYELGSQLDTLVKIMSQDKVLPIGKVAHVQDGGKETGEQIYTITPNGTLDKPEDVKEVTVLFKGSTAPFGGDDWKTDWFKNDIPIASKLLLKKFGSQSVSHKQGTKQLEQSAHLLKEVMNKYPNAKISVYGHSLGSMNAQYAIAELDDNQIYRVQGAWIYNGPNLYSILTDKQKEQVDKIKGVVNNYVDSKDKIGIGYPKEGSDNAVGIVKIVDSKAVSGGSWVANFTNQHIWGGYQYNPDGSLKLAEDKFAYKENYSVVHTNVNQRMHAIKAKLSSFKSTGKEVSKNQAIFLDSQQAKVISSGLVTISKEAVEEVKKVEQKAVAKAEELYQSLKVAPTGVTELSPQELEEAYAQSGVSYASIVGEAQTFFSNKTQAAESISHAYVELENQINKGVEAMLRQDSNLSGEFKQWH”, “failed”. To “MEKVTLIATATMGLEALVAREVKDLGYEDVKVENGKVTFTSDVAAIPRANLWLRTADRVKLKVGEFKALTFDELFEKTKSLPWADIIPVHAEFPVIGRSVKSKLFSVSDCQAIVKKAVVESMKKRYKRGWFDENGPLYRIEVALHKDIATLTIDTSGTGLHKRGYRYLHSQAPLKETLAAAIIMLSHWKSDRPFADPFCGSGTIPIEAAMIGQNIAPGFNREFVSEQWHWIGSEHWDRAREEVEDMANYDQPLDILGSDIDHRMVELAQNNAMEAGFGDLISFKQMQVTDFRHKEEYGILIGNPPYGERIGEREEVEKMYQKMGEVFREHLETWSIYILTSHEGFEELYGKRATKKRKLYNGNIKTDYYQFFGPRPPRHPEGSQQ” belongs “failed”; to “MEKYSQVIFDKNTVEFVTVAAEFCGFLERARDMKRYDFVDTALKILPLLYLKATLLPPCEPIGEDEPETFVTEEDYELIRRAIAGVLGAKDDYLEVFLPDMVYSDTPIKKCISEDLADIYQDLKDFISVFQLGLNETMNDSLVVCKEHFREFWGQRLVNTMRALHDVKYSPLEHHHHHH”, “not failed”. As for “MELGLYTFADVNPNPADGRGPEGARRLRELLEEIELADQVGLDVFGLGEHHRPDYVVSSPSTVLAAAAVKTKNIRLTSAVSVLSSDDPVRVFQQFSTVDLLSNGRAEIMAGRGSFIESYPLFGYDLEDYDVLFAEKLDLLLALREQEVVTWSGTKHPAINGRGVYPRPLQERLPVWIAVGGTPQSVARAGAMGLPVALAIIGGEYRRFAPLFDLYHEAARRAGQEKTKLRTSINVHGFIADTTDKAADQFYGPQAEVMNRIGRERGWGPTNRAHFDAARGPEGNLFLGEPELVAEKIIKAHGVFKNDRFLLQMAIGLMPHDQIMRGIELYGTKVAPLVRKELTGSADPVKATA”, the protein production result is reported as “not failed”. As for “MELKQSLSTHLEAEKPLRRYGAVEETAWKTERLGRNQLDIISMAETTMMPEEIELEMAKIQRLREVLVRRESELRFMMDDIQLCKDIMDLKQELQNLVAIPEKEKTKLQKQREDELIQKIHKLVQKRDFLVDDAEVERLREQEEDKEMADFLRIKLKPLDKVTKSPASSRAEKKAEPPPSKPTVAKTGLALIKDCCGATQCNIM”, the entry is “failed”; as for “MELPEKPQLYLITPPEFELSSFPDVLARVLDTHKVACVRLELAARDEDTVSRAADALREVTHARDIALVLSDHSVLADRLGLDGVHLSDAARSVRETRKLLGEDAIIGSFCGTSRHDGMSAGEAGADYICFGPVAASSLGDGSYVAQEVFEWWSEFIEVPVVAEGGLDAARIAQLTPFTDFFAFGQEVWSAEYPAQRLGELLEAMG”, “failed”. To “MELPVVVQQALGDNAPGVSFRSVSQIDTGHLLRMVLLSDDQGNLQAICRRNDMLDLEALNKRLGRDLRMMQRREQVRVRQKAGLQELPALPSLTGWPTVVDRRVDELEAVALELGEQDLGLMMPAEDFRQLTAKAARHDFAVDTANISVNLDNHAADRDQLHSAIKRFTGLRIQQRLEDTLELPPLPETAQRIIHLRVNPNAVMGDLVDVVESDPSLAAQVVSWASSSFYAAAGRVHSVHDAVSRVLGFDLVMNLAMGLALGRALKHPQDHPDGYVDYWQQAIWQAQSAGILASMMPRGQRPLFGLAYLAGLLHNFGHLVLAQVFPPHFKLVCRSLEVSPHIDSSVIEHYLLGITREQIAAQLMENWGMPDEVTLAIRYQKNPAYDGPHNVYARLLWLGRQLLTERGVALGAGESATQAVYDELGLDRELVQEQFDELVRRKDSIMAMAGMMSQGG” belongs “not failed”.

For “MELQLAIDLLNKEEAAKLAQKVEEYVDIVEIGTPIVINEGLPAVQHLNENINNAKVLADLKIMDAADYEVSQAVKYGADIVTILGVAEDASIKAAVEEAHKHGKALLVDMIAVQNLEQRAKELDEMGADYIAVHTGYDLQAEGKSPLDSLRTVKSVIKNSKVAVAGGIKPDTIKDIVAEDPDLVIVGGGIANADDPVEAAKQCRVAIEGK”, the protein production entry was “failed”.

Turning to “MELREWQSKIAEKIVEALRNNFLVSLQAPTGSGKTLFALYTALKVKPKVAFVVRTHNEFFPVYRELSLHFKDKKYGFLVGKSSACVFSSSDVDAQDIYCNGCEIFNASAVTVTDSPKVSLNKLKEEGKKLGFCPYYSLLETIKTADVILLTYPYLFIPWLRESLDINWEDYVVIVDEAHNIENVSNIEEKKLNKRIIEMAISQSHSQNVKVILERLKENVEKAVYSEDKYILIEKDKLDNILPSNEEIEILSEEYDEIRKIMIKNKTVSRNYLGSILRFFDLVNDEGIRVFSYSGSLIAKYIIPSYFTDILNDEKITYMLMSGTMQPLDYLRNIIGIKRKILYIDAEKVMKKRLTGTYECLISIDVTTTYSLRSEQMARKYASYLLKIFYNSRRHVLAIFPSYEFMRIVSKFLNIRYLAEDTETSIEEIMSNLKKEKTIIMGIARGKLAEGIEIVENGSSLISDVAMVGIPYPPIDDYLKIRVEEISKILKKDISNELISIQALIAVKQSIGRAIRGPTDNATIWLLDKRYDSLWWKKELNCLNARKIKL”, the protein production entry is “failed”.

Consider “MELSAVGERVFAAEALLKRRIRKGRMEYLVKWKGWSQKYSTWEPEENILDARLLAAFEEREREMELYGPKKRGPKPKTFLLKAQAKAKAKTYEFRSDSARGIRIPYPGRSPQDLASTSRAREGLRNMGLSPPASSTSTSSTCRAEAPRDRDRDRDRDRERDRERERERERERERERERERGTSRVDDKPSSPGDSSKKRGPKPRKELPDPSQRPLGEPSAGLGEYLKGRKLDDTPSGAGKFPAGHSVIQLARRQDSDLVQCGVTSPSSAEATGKLAVDTFPARVIKHRAAFLEAKGQGALDPNGTRVRHGSGPPSSGGGLYRDMGAQGGRPSLIARIPVARILGDPEEESWSPSLTNLEKVVVTDVTSNFLTVTIKESNTDQGFFKEKR”, for which the protein production result is “failed”. With “MELSFRIWLGGLGMLISLLILYFKAVPELEEFHKNCTLKQNWEQPFKKVKNLTLILSISLLSIIGFFLMFINLVNINPI”, the protein production result is reported as “failed”.

These data come from a protein production outcome set (Wang et al. 2014).
